This series in a line: Zetasizer measurement of zeta potential of liposomes. The conditions noted are these: CPP coupled after liposome preparation, eight equivalents relative to first lipid (FIG. 1). In kind it is physicochemical. The procedure: The zeta potential can be determined by methods known in the art. The zeta potential may be determined after dilution of the liposomes to a lipid concentration of 0.95 mg/ml using a 50 mM phosphate buffer with a pH of 7.4. The default settings of the automatic mode of the Zetasizer Nano ZS from Malvern™ (Malvern Instruments Ltd., Worcestershire, United Kingdom) can be chosen as follows: number of measurements=3; run duration=10 s; number of runs=10; equilibration time=60 s; refractive index solvent 1.330; refractive index polystyrene cuvette 1.590; viscosity=0.8872 mPa s; temperature=25° C.; dielectric constant=78.5 F/m; backscattering mode (173°); automatic voltage selection; Smoluchowski equation.
The particle size, PDI and zeta potential of all liposomal formulations were determined at room temperature using a zetasizer Nano ZS from Malvern™ (Malvern Instruments Ltd., Worcestershire, United Kingdom). Size and PDI were measured after dilution to a lipid concentration of 0.076 mg/ml with a 10 mM phosphate buffer with a pH of 7.4 using the automatic mode. The zeta potential was determined after dilution to a lipid concentration of 0.95 mg/ml by a 50 mM phosphate buffer with a pH of 7.4. […]

On to “RRRRRRRRRC (cyclo(RRRRRRRRRC); also: coupled to liposomes) [R9C, here coupled to liposomes after their preparation]”, for which the zeta potential result is on record as “only slightly positive”.
